Source: US7648964B2, “Use of lacritin in promoting ocular cell survival” (University of Virginia Patent Foundation, priority 2004, dated 2010)

How the values were obtained:
[1] = system: rat lacrimal acinar cells; assay: Secretion by freshly isolated rat lacrimal acinar cells (peroxidase assay); assay type: cell-based
Description: Freshly isolated rat lacrimal acinar cells, and HSG (human salivary gland) ductal and HCE (human corneal epithelial) cell lines were used to study lacritin function. For secretion studies, rat acinar cells were plated serum-free overnight on wells co-coated with 0.05 μM laminin 1 (to ensure adhesion) and 0 to 20 μM lacritin, or alternatively with laminin-1 (0.05 μM) and treated the next day with serum-free medium containing 0 to 162 ng/ml of soluble lacritin for four hours. Unstimulated and stimulated (carbachol 10^−4 M/VIP 10^−8 M) secretions were then collected, assessed (peroxidase assay) and normalized to μg cellular DNA. To study tyrosine phosphorylation, overnight serum-free cultures of both rat lacrimal acinar and HSG cells were washed and treated with 10 ng/ml of soluble lacritin for 0.5, 2.5, 10, and 30 minutes. […] Using an inverted Zeiss 510 LSM for visualization, 50 second baseline images were first recorded. While the laser was running, lacritin was added (final concentration 4 and 40 ng/ml) and the response continually monitored every 786 msec for a minimum of 200 sec.
Lacritin function of three types of epithelial cells was assessed in serum-free cultures of: 1) lacrimal acinar; 2) salivary ductal; and 3) corneal epithelial cells using secretion (acinar), proliferation (ductal), tyrosine phosphorylation (acinar, ductal) and calcium signaling (corneal epithelial) assays. […]

cervical (HeLa) cells = assay: 3H-thymidine uptake mitogenesis assay; assay type: cell-based, human
Description: (§1) For phosphotyrosine blotting and mitogenesis assays, cells in serum-containing media were seeded overnight in 24-well plates at a density of 0.5×10^5 cells/mm^2 corresponding to 20-30% confluency after cell attachment, incubated in serum-free media without supplements for 24 h (phosphotyrosine) or washed with serum-free media without supplements three times (mitogenesis) and incubated with lacritin (1-1000 nM), or positive controls EGF (1.6 nM) and 10% fetal bovine serum, or negative controls bovine serum albumin or no additive in serum-free media without supplements for the indicated times (phosphotyrosine) or 30 h (mitogenesis). For phosphotyrosine assays, cells were extracted in 1% NP40 containing sodium vanadate (2 mg/ml), DTT (5 mg/ml), protease inhibitors, 50 mM HEPES, 100 mM NaCl, and 2 mM EDTA; then separated by 10% SDS PAGE, transferred and blotted. The following antibodies (Cell Signaling Technology, Beverly Mass.) were tested: antiphosphotyrosine antibody (P-Tyr-100), anti-phospho-PKC αβII, anti-PKCα, anti-phospho-PKCδ, anti-phospho-PKC (pan), anti-p44/42 MAPK, anti-phospho-Raf, anti-phospho-SAPK/JNK, anti-phospho-p38 Map kinase, anti-phospho-Raf, anti-phospho-Akt, anti-phospho-CaMKII, anti-phospho-MARCKS, or anti-tubulin (loading control). After washing, bound antibodies were detected with peroxidase-labeled secondary antibody and ECL. With the exception of at least nine proteins in the P-Tyr-100 blot (FIG. 1), none of the effectors tested above appeared to be phospho-activated during lacritin signaling (not shown). For mitogenesis (Hussaini et al., '00), [^3H]-thymidine (2 mCi/ml) was added for the next 6 h. Incorporation was stopped with ice-cold phosphate buffered saline and followed by addition of cold and then room temperature trichloracetic acid (10%) for 10 min each, washing of cells with phosphate buffered saline, solubilization with 1 N sodium hydroxide, neutralization with 1 N hydrochloric acid, addition of scintillation fluid and then quantitation in a scintillation counter. To deplete PKCα in HSG cells, a pool of four PKCα-specific siRNAs (100 nM) were transfected via LipofectAMINE 2000 in Opti-MEMI Reduced Serum Medium (Invitrogen, Grand Island N.Y.) without serum and antibiotics according to manufacturer's instructions. Each of the four siRNAs was also individually transfected. In negative controls, cells were transfected with a pool of four lamin-specific siRNAs (Upstate LLC, Charlottesville Va.; Dharmacon Inc, Lafayette Colo.). Seventy-two hours post-transfection, mitogenesis was assessed by co-addition of 10 […] lacritin and [^3H]-thymidine (2 mCi/ml) (Amersham, Piscataway N.J.) for 24 hrs. PKCα depletion was confirmed by Western blotting.

[2] = system: embryonic kidney (HEK) cells; assay: 3H-thymidine uptake mitogenesis assay; assay type: cell-based, human
Description: as §1

[3] = system: erythroleukemia (K-562) cells; assay: 3H-thymidine uptake mitogenesis assay; assay type: cell-based, human
Description: as §1

[4] = system: fibrosarcoma (HT1080) cells; assay: 3H-thymidine uptake mitogenesis assay; assay type: cell-based, human
Description: as §1

[5] = system: non-invasive breast carcinoma (MCF7) cells; assay: 3H-thymidine uptake mitogenesis assay; assay type: cell-based, human
Description: as §1

[6] = system: tyrosine phosphorylation of phosphoproteins in HSG cells; assay: Phosphotyrosine blotting in HSG cells; assay type: cell-based, human; details: within the first minute
Description: For phosphotyrosine blotting and mitogenesis assays, cells in serum-containing media were seeded overnight in 24-well plates at a density of 0.5×10^5 cells/mm^2 corresponding to 20-30% confluency after cell attachment, incubated in serum-free media without supplements for 24 h (phosphotyrosine) or washed with serum-free media without supplements three times (mitogenesis) and incubated with lacritin (1-1000 nM), or positive controls EGF (1.6 nM) and 10% fetal bovine serum, or negative controls bovine serum albumin or no additive in serum-free media without supplements for the indicated times (phosphotyrosine) or 30 h (mitogenesis). […] After washing, bound antibodies were detected with peroxidase-labeled secondary antibody and ECL. […] Incorporation was stopped with ice-cold phosphate buffered saline and followed by addition of cold and then room temperature trichloracetic acid (10%) for 10 min each, washing of cells with phosphate buffered saline, solubilization with 1 N sodium hydroxide, neutralization with 1 N hydrochloric acid, addition of scintillation fluid and then quantitation in a scintillation counter. […] Seventy-two hours post-transfection, mitogenesis was assessed by co-addition of 10 […] lacritin and [^3H]-thymidine (2 mCi/ml) (Amersham, Piscataway N.J.) for 24 hrs. […]

syndecan-1 = target: T1, syndecan-1 (Homo sapiens, UniProt P18827); assay: Pull down binding assay with lysates of transfected cells
T1 construct: expressed in transfected cells; host or cells: HEK293 (syndecan-1); E. coli ER2566 (lacritin-intein)
T1 sequence (P18827 23-310): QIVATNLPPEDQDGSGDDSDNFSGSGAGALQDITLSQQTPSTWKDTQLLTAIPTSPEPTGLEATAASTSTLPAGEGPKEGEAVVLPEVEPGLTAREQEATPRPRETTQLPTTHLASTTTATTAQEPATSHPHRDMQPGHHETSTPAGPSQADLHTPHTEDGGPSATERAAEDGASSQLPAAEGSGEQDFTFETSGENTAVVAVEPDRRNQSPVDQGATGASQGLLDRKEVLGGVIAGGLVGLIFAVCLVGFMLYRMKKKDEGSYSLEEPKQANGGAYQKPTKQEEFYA
Excerpt: Biotinylated cell surface proteins were applied to lacritin affinity columns. After washing extensively in physiological salt-containing buffer, bound protein was eluted with 1 M NaCl, and identified with avidin-peroxidase using an ECL blot method. In controls, columns lacking lacritin were used. […] 293T cells stably transfected with human syndecan-2 or −4 were kindly provided by Dr. Atsushi Utani (Chiba University). A series of lacritin C-terminal and N-terminal deletion mutants were generated. Pull down binding assays involved incubation of intein-tagged lacritin or intein deletion mutants with lysates of untransfected or transfected cells followed by precipitation and SDS PAGE. Immunolocalization of syndecan-1 in human lacrimal glands was performed using anti-human syndecan-1 antibody (CD138).

B1: lacritin: recombinant human lacritin from E. coli; mature 119 residue fragment (SEQ ID NO:10) of native lacritin SEQ ID NO:4 (protein, listed as Homo sapiens)
chain: EDASSDSTGADPAQEAGTSKPNEEISGPAEPASPPETTTTAQETSAAAVQGTAKVTSSRQELNPLKSIVEKSILLTEQALAKAGKGMHGGVPGGKQFIENGSEFAQKLLKKFSLLKPWA
stimulated secretory pathways ([1]; activated by agonists carbachol and VIP): no effect | unstimulated secretion ([1]; coated and soluble lacritin, serum-free): enhanced unstimulated secretion in a dose-dependent manner | mitogenesis (cervical (HeLa) cells): not mitogenic | mitogenesis [2]: mitogenic | mitogenesis [3]: not mitogenic | mitogenesis [4]: not mitogenic | mitogenesis [5]: not mitogenic | tyrosine phosphorylation of at least nine phosphoproteins [6]: transient tyrosine phosphorylation | binding to mammalian syndecan-1 (syndecan-1): bound
